B1: AtRLP23-eJMVe1-3×FLAG: AtRLP23 with the SlVe1 eJM domain, 3×FLAG; SEQ ID NO: 53, 54 (protein)
chain: MSKALLHLHFLSLFLLCCVCHSSIFTLNFHFTGIVACRPHQIQAFTKFTNEFDTRGCNNSDTFNGVWCDNSTGAVAVLQLRKCLSGTLKSNSSLFGFHQLRYVDLQNNNLTSSSLPSGFGNLKRLEGLFLSSNGFLGQVPSSFSNLTMLAQLDLSYNKLTGSFPLVRGLRKLIVLDLSYNHFSGTLNPNSSLFELHQLRYLNLAFNNFSSSLPSKFGNLHRLENLILSSNGFSGQVPSTISNLTRLTKLYLDQNKLTSSFPLVQNLTNLYELDLSYNKFFGVIPSSLLTLPFLAHLALRENNLAGSVEVSNSSTSSRLEIMYLGSNHFEGQILEPISKLINLKHLDLSFLNTSYPIDLKLFSSLKSLRSLDLSGNSISSASLSSDSYIPLTLEMLTLRHCDINEFPNILKTLKELVYIDISNNRMKGKIPEWLWSLPLLQSVTLGNNYFTGFQGSAEILVNSSVLLLYLDSNNFEGALPDLPLSIKGFGVASNSFTSEIPLSICNRSSLAAIDLSYNNFTGPIPPCLRNLELVYLRNNNLEGSIPDALCDGASLRTLDVSHNRLTGKLPRSFVNCSSLKFLSVINNRIEDTFPFWLKALPNLQVLTLRSNRFYGPISPPHQGPLGFPELRIFEISDNKFTGSLPPNYFVNWKASSRTMNQDGGLYMVYEEKLFDEGGYGYTDALDLQYKGLHMEQAKALTSYAAIDFSGNRLEGQIPESIGLLKALIAVNISNNAFTGHIPLSMANLENLESLDMSRNQLSGTIPNGLGSISFLAYINVSHNQLTGEIPQGTQITGQSKSSFEGNAGLCGLPLKESCFGTGAPPMYHQKQEDESLPPPTPLPDSDDEWEAVAIGYGSGLLLGLAIAQVIASYKPEWLVKIIGLNKRRKRSDYKDHDGDYKDHDLDAAAADYKDDDDK
modifications: Fusion protein
B2: AtRLP23-eJMAtRLP1-3×FLAG: AtRLP23 with the AtRLP1 eJM domain, 3×FLAG; SEQ ID NO: 49, 50 (protein)
chain: MSKALLHLHFLSLFLLCCVCHSSIFTLNFHFTGIVACRPHQIQAFTKFTNEFDTRGCNNSDTFNGVWCDNSTGAVAVLQLRKCLSGTLKSNSSLFGFHQLRYVDLQNNNLTSSSLPSGFGNLKRLEGLFLSSNGFLGQVPSSFSNLTMLAQLDLSYNKLTGSFPLVRGLRKLIVLDLSYNHFSGTLNPNSSLFELHQLRYLNLAFNNFSSSLPSKFGNLHRLENLILSSNGFSGQVPSTISNLTRLTKLYLDQNKLTSSFPLVQNLTNLYELDLSYNKFFGVIPSSLLTLPFLAHLALRENNLAGSVEVSNSSTSSRLEIMYLGSNHFEGQILEPISKLINLKHLDLSFLNTSYPIDLKLFSSLKSLRSLDLSGNSISSASLSSDSYIPLTLEMLTLRHCDINEFPNILKTLKELVYIDISNNRMKGKIPEWLWSLPLLQSVTLGNNYFTGFQGSAEILVNSSVLLLYLDSNNFEGALPDLPLSIKGFGVASNSFTSEIPLSICNRSSLAAIDLSYNNFTGPIPPCLRNLELVYLRNNNLEGSIPDALCDGASLRTLDVSHNRLTGKLPRSFVNCSSLKFLSVINNRIEDTFPFWLKALPNLQVLTLRSNRFYGPISPPHQGPLGFPELRIFEISDNKFTGSLPPNYFVNWKASSRTMNQDGGLYMVYEEKLFDEGGYGYTDALDLQYKGLHMEQAKALTSYAAIDFSGNRLEGQIPESIGLLKALIAVNISNNAFTGHIPLSMANLENLESLDMSRNQLSGTIPNGLGSISFLAYINVSHNQLTGEIPQGTQITGQSKSSFEGNAGLCGLPLKESCFGTGAPPMYHQKQEDTHAKEEENEEEGNVIDAVAIGYGSGLLLGLAIAQVIASYKPEWLVKIIGLNKRRKRSDYKDHDGDYKDHDLDAAAADYKDDDDK
modifications: Fusion protein
B3: AtRLP23-3×FLAG: AtRLP23 (amino acids 1-890) linked to the 3×FLAG peptide; SEQ ID NO: 13 (nucleotide), 14 (protein) (protein)
chain: MSKALLHLHFLSLFLLCCVCHSSIFTLNFHFTGIVACRPHQIQAFTKFTNEFDTRGCNNSDTFNGVWCDNSTGAVAVLQLRKCLSGTLKSNSSLFGFHQLRYVDLQNNNLTSSSLPSGFGNLKRLEGLFLSSNGFLGQVPSSFSNLTMLAQLDLSYNKLTGSFPLVRGLRKLIVLDLSYNHFSGTLNPNSSLFELHQLRYLNLAFNNFSSSLPSKFGNLHRLENLILSSNGFSGQVPSTISNLTRLTKLYLDQNKLTSSFPLVQNLTNLYELDLSYNKFFGVIPSSLLTLPFLAHLALRENNLAGSVEVSNSSTSSRLEIMYLGSNHFEGQILEPISKLINLKHLDLSFLNTSYPIDLKLFSSLKSLRSLDLSGNSISSASLSSDSYIPLTLEMLTLRHCDINEFPNILKTLKELVYIDISNNRMKGKIPEWLWSLPLLQSVTLGNNYFTGFQGSAEILVNSSVLLLYLDSNNFEGALPDLPLSIKGFGVASNSFTSEIPLSICNRSSLAAIDLSYNNFTGPIPPCLRNLELVYLRNNNLEGSIPDALCDGASLRTLDVSHNRLTGKLPRSFVNCSSLKFLSVINNRIEDTFPFWLKALPNLQVLTLRSNRFYGPISPPHQGPLGFPELRIFEISDNKFTGSLPPNYFVNWKASSRTMNQDGGLYMVYEEKLFDEGGYGYTDALDLQYKGLHMEQAKALTSYAAIDFSGNRLEGQIPESIGLLKALIAVNISNNAFTGHIPLSMANLENLESLDMSRNQLSGTIPNGLGSISFLAYINVSHNQLTGEIPQGTQITGQSKSSFEGNAGLCGLPLKESCFGTGAPPMYHQKQEDKEEEEEEEEEEEEVLNGRAVAIGYGSGLLLGLAIAQVIASYKPEWLVKIIGLNKRRKRSDYKDHDGDYKDHDLDAAAADYKDDDDK
modifications: Fusion protein
B4: AtRLP23-eJM(EEEE/ADQ−)-3×FLAG (protein)
chain: SIFTLNFHFTGIVACRPHQIQAFTKFTNEFDTRGCNNSDTFNGVWCDNSTGAVAVLQLRKCLSGTLKSNSSLFGFHQLRYVDLQNNNLTSSSLPSGFGNLKRLEGLFLSSNGFLGQVPSSFSNLTMLAQLDLSYNKLTGSFPLVRGLRKLIVLDLSYNHFSGTLNPNSSLFELHQLRYLNLAFNNFSSSLPSKFGNLHRLENLILSSNGFSGQVPSTISNLTRLTKLYLDQNKLTSSFPLVQNLTNLYELDLSYNKFFGVIPSSLLTLPFLAHLALRENNLAGSVEVSNSSTSSRLEIMYLGSNHFEGQILEPISKLINLKHLDLSFLNTSYPIDLKLFSSLKSLRSLDLSGNSISSASLSSDSYIPLTLEMLTLRHCDINEFPNILKTLKELVYIDISNNRMKGKIPEWLWSLPLLQSVTLGNNYFTGFQGSAEILVNSSVLLLYLDSNNFEGALPDLPLSIKGFGVASNSFTSEIPLSICNRSSLAAIDLSYNNFTGPIPPCLRNLELVYLRNNNLEGSIPDALCDGASLRTLDVSHNRLTGKLPRSFVNCSSLKFLSVINNRIEDTFPFWLKALPNLQVLTLRSNRFYGPISPPHQGPLGFPELRIFEISDNKFTGSLPPNYFVNWKASSRTMNQDGGLYMVYEEKLFDEGGYGYTDALDLQYKGLHMEQAKALTSYAAIDFSGNRLEGQIPESIGLLKALIAVNISNNAFTGHIPLSMANLENLESLDMSRNQLSGTIPNGLGSISFLAYINVSHNQLTGEIPQGTQITGQSKSSFEGNAGLCGLPLKESCFGTGAPPMYHQKQEDKEEEEAEEDEQEVLNGRAVAIGYGSGLLLGLAIAQVIASYKPEWLVKIIGLNKRRKRSDYKDHDGDYKDHDLDAAAADYKDDDDK

System: corn protoplasts
Assay: Calcium burst in transiently transfected corn protoplasts, R-GECO1.2 fluorescence reporter
Type: cell-based, Zea mays
Settings: transient expression in corn protoplasts; 1 μM PpNLP20
Text: Following ligand (also known as elicitor) binding, PRRs are activated and induce a transient increase of cytosolic Ca^2+ concentration as part of a PTI response. […] In a high-throughput method, the kinetics of PRR-dependent transient variation of cytosolic Ca^2+ concentration can be measured with a fluorimeter or luminometer and in microplate formats of 96 or 384 wells.
Fluorescence was monitored using a fluorimeter equipped with a 100 Hz xenon flash lamp with excitation at 556 nm and emission measured at 585 nm for 100 ms, every 22.6 seconds for 42 minutes.
All of the AtRLP23 constructs have an operably linked 2×35S+Ω promoter construct (SEQ ID NO: 72) and an operably linked rbcS terminator (SEQ ID NO: 73)
Fluorescence was monitored using a fluorimeter equipped with a 100 Hz xenon flash lamp with excitation at 556 nm and emission measured at 585 nm for 30 ms, every 20.2 seconds for 40 minutes. For each fluorescence measurement, the transient change in R-GECO1.2 fluorescence (ΔF) are calculated from background corrected intensity values as (F-Fo), where F represents the average fluorescence intensity of the a batch of protoplasts treated with elicitor, and Fo represents the average fluorescence intensity of the same batch of protoplasts treated with a control solution that lacks the elicitor but is otherwise identical or essentially identical in composition to the solution comprising the elicitor.

Molecule | Ca^2+ increase in response to PpNLP20 treatment (R-GECO1.2 fluorescence)
B1 | Ca^2+ increase
B2 | Ca^2+ increase
B3 | significant Ca^2+ increase
B4 | Ca^2+ increase
